Assay results published in patent US10010626B2, “Molecular constructs with targeting and effector moieties” (Immunwork Inc., priority 2015, dated 2018).
One block for each molecule: values may come before it.

System: CD3-Fc-fusion protein
Assay: ELISA analysis of TCO- and DBCO-conjugated scFv specific for CD3
Assay type: binding
Conditions: anti-PD1 scFv negative control, anti-CD3 scFv positive control
Experimental: The DNA sequence encoding SEQ ID NO: 42 was synthesized and expressed as in the above Examples. The sequences of VL and VH of scFv specific for CD3 were those of VL and VH of mutated Teplizumab. For the conjugation with Mal-PEG3-TCO and Mal-PEG5-DBCO (Conju-probe, Inc.), the cysteine residue at the C-terminal end of the purified scFv of the mutated teplizumab was reduced by incubating 5 mM DTT at room temperature for 4 hours with gentle shaking. The buffer of reduced anti-CD3 scFv was exchanged to sodium phosphate buffer (100 mM sodium phosphate, pH7.0, 50 mM NaCl, and 5 mM EDTA) by using NAP-10 Sephadex G-25 column. After the reduction reaction and buffer exchange, conjugation was conducted overnight at room temperature in a reaction molar ratio of 1:1 ([Mal-PEG3-TCO or Mal-PEG5-DBCO:[scFv]]. The excess crosslinker was removed by a desalting column and the TCO-conjugated and DBCO-conjugated scFv products were analyzed.
The purity of TCO-conjugated scFvs specific for CD3 was identified through Coomassie staining of 12% SDS-PAGE (data not shown). FIG. 23A and […] show, respectively, the ELISA analysis of TCO-conjugated scFv and DBCO-conjugated scFv specific for CD3, in which anti-PD1 scFv and anti-CD3 scFv were used as a negative control and positive control, respectively.

Sequence of CD3-Fc-fusion protein (P07766 23-126 limits assumed): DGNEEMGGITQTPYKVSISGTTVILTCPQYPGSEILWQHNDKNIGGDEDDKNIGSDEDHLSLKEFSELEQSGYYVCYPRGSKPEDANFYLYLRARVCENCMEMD

- binding to CD3-Fc-fusion protein (ELISA): bound to CD3-Fc-fusion protein
B1: TCO-conjugated scFv: scFv of mutated teplizumab (SEQ ID NO: 42) conjugated with Mal-PEG3-TCO (protein)
scFv: DIQMTQSPSSLSASVGDRVTITCSASSSVSYMNWYQQTPGKAPKRWIYDTSKLASGVPSRFSGSGSGTDYTFTISSLQPEDIATYYCQQWSSNPFTFGQGTKLQITRGSTSGSGKPGSGEGSTKGQVQLVQSGGGVVQPGRSLRLSCKASGYTFTRYTMHWVRQAPGKGLEWIGYINPSRGYTNYNQKVKDRFTISRDNSKNTAFLQMDSLRPEDTGVYFCARYYDDHYSLDYWGQGTPVTVSSGGGGSGGGGSC
modifications: Mal-PEG3-TCO conjugate; mutated teplizumab scFv

- binding to CD3-Fc-fusion protein (ELISA): bound to CD3-Fc-fusion protein
B2: DBCO-conjugated scFv specific for CD3: scFv of mutated teplizumab (SEQ ID NO: 42) conjugated with Mal-PEG5-DBCO (protein)
scFv: B1 scFv
modifications: Mal-PEG5-DBCO conjugate; mutated teplizumab scFv
